Measured values reported in publication PMC4999211, “Amlexanox Blocks the Interaction between S100A4 and Epidermal Growth Factor and Inhibits Cell Proliferation” (PLoS ONE, 2016).

Molecular target: T1, mutant S100A4 (C3S, C76S, C81S, C86S) (human, UniProt P26447 1-101, C3S | C76S | C81S | C86S)
T1 construct: human S100A4 with all four cysteines mutated to serines; residue numbers 1-101 in the HSQC bar graph; 15N-labelled where it was the observed protein in HSQC; No tag is named; also called mS100A4; quadruple mutant S100A4; source: E. coli BL21 (DE3), pET21b, purified (ammonium sulfate, Hi-Prep Q XL, Hi-Prep Phenyl FF, Superdex 75)
Experiment: other fluorescence titration; intrinsic tryptophan fluorescence of EGF (8 uM), excitation 295 nm, emission at 345 nm; mS100A4 added at 0-22 uM; double-reciprocal plot, one-site binding model
Conditions: both partners purified

T1 sequence (P26447 whole entry C3S/C76S/C81S/C86S, one chain of several): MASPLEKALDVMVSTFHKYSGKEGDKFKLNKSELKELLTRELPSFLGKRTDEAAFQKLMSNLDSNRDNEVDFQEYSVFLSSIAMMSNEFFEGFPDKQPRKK

- Kd: 5.2 µM
B1: human epidermal growth factor (ligand, UniProt P01133 971-1023, looked up)
chain: NSDSECPLSHDGYCLHDGVCMYIEALDKYACNCVVGYIGERCQYRDLKWWELR
notes: human epidermal growth factor, the mature hormone cut from pro-EGF; three disulfide bonds; 15N-labelled where it was the observed protein in HSQC; also called EGF; recombinant EGF
